Usually stoichiometry N stands for a count of units in the complex or per binding partner. As usually defined, the Kd is the free concentration of one partner at which half of the binding sites on the other are occupied at equilibrium, for simple one-to-one binding.

We go through nine molecules from article doi:10.1101/464131, “Increased association between Epstein-Barr virus EBNA2 from type 2 strains and the transcriptional repressor BS69 restricts B cell growth” (bioRxiv, 2018).

Sequences and labels used below:
B1: BS69 CC-MYND domain (amino acids 480-602) (domain or fragment, human, UniProt Q15326-1 480-602, looked up)
chain: DRMKSDHKRETERVVREALEKLRSEMEEEKRQAVNKAVANMQGEMDRKCKQVKEKCKEEFVEEIKKLATQHKQLISQTKKKQWCYNCEEEAMYHCCWNTSYCSIKCQQEHWHAEHKRTCRRKR
notes: BS69 (ZMYND11), human, C-terminal region with the coiled-coil and MYND domains, amino acids 480-602; canonical isoform 1 of 602 amino acids; Dimer by SEC-MALS; Amplified from pCI-BS69 and cloned into pET49b+; also called ZMYND11; source: E. coli Rosetta 2 (DE3) pLysS, purified (cobalt resin, 3C protease cleavage, Superdex 75); not shown: GST, N-terminal, cleaved; His6, N-terminal, cleaved

Data set [1] concerns the molecule itself. Description: SEC-MALS; individual proteins, 5 mg/ml, Shodex KW403-4F column, 25°C, 20 mM Tris-HCl, 100 mM NaCl, 1 mM TCEP, pH 7.5. (In general: SEC sorts molecules by how far they enter the pores of the column.)
The target in data set [2] is T1, BS69 CC-MYND domain (amino acids 480-602) (human, UniProt Q15326-1 480-602).
T1 chain: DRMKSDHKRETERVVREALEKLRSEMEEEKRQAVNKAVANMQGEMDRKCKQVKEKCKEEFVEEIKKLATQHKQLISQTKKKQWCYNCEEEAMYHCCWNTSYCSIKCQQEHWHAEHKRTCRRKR
The experiment in a line: ITC. A general note: In ITC the heat of successive injections is recorded.

The target in data set [3] is B1. Description: ITC; EBNA2 peptide (1 mM) titrated into BS69CC-MYND (0.1 mM) in the cell, 13 injections, 25°C, 20 mM Tris-HCl, 100 mM NaCl, 1 mM TCEP, pH 7.5; one-site model with n fixed to 1. The settings on record: both partners purified.
Data set [4] deals with B1. The experiment in a line: ITC; EBNA2 polypeptide titrated into BS69CC-MYND (0.1 mM) in the cell, 19 x 2.0 μl injections, 25°C, 20 mM Tris-HCl, 100 mM NaCl, 1 mM TCEP, pH 7.5; one set of sites model; n calculated for monomeric proteins. Particulars: both partners purified.
For data set [5], the target named is B1. The experiment in a line: ITC; EBNA2 polypeptide titrated into BS69CC-MYND (0.1 mM) in the cell, 29 x 1.3 μl injections, 25°C, 20 mM Tris-HCl, 100 mM NaCl, 1 mM TCEP, pH 7.5; two sets of sites (two event) model. Particulars: both partners purified.

For the molecule B1, the “stoichiometry N” value in data set [1] worked out at 2.

B2: type 1 EBNA2 polypeptide T1 EBNA2_(381-455) (domain or fragment)
chain: SMPELSPVLGLHQGQGAGDSPTPGPSNAAPVCRNSHTATPNVSPIHEPESHNSPEAPILFPDDWYPPSIDPADLD
In data set [2], B2 gave a Kd of 730 nM.

B3: type 2 EBNA2 motif 2 peptide (402-412) (peptide)
peptide: EPPFLFPSDWY
notes: source: synthetic peptide (Peptide Synthetics)
B3 yielded a Kd in data set [3] of 176000 nM.

B4: type 2 EBNA2 polypeptide T2 EBNA2_(348-412) (domain or fragment)
chain: SMPQLSPVVSLHQGQGPENSPTPGPSTAGPVCRVTPSATPDISPIHEPESSDSEEPPFLFPSDWY
notes: pET47b+ construct; also called type 2 EBNA2_(348-412); source: E. coli Rosetta 2 (DE3) pLysS, purified (cobalt resin, 3C protease cleavage, Superdex 75); not shown: His6, N-terminal, cleaved
Take B4: in data set [4], the Kd was 1210 nM and the “stoichiometry N” value was 0.33 molar ratio EBNA2 : BS69CC-MYND monomer.

B5: type 2 EBNA2 motif 3 peptide T2 EBNA2_(412-422) (peptide)
peptide: YPPTLEPAELD
notes: as for B3
In data set [3], B5 came in with a Kd of 219000 nM.

B6: type 2 EBNA2 polypeptide T2 EBNA2_(348-422) (domain or fragment)
chain: SMPQLSPVVSLHQGQGPENSPTPGPSTAGPVCRVTPSATPDISPIHEPESSDSEEPPFLFPSDWYPPTLEPAELD
notes: pET47b+ construct; Monomer by SEC-MALS; also called type 2 EBNA2_(348-422); source: E. coli Rosetta 2 (DE3) pLysS, purified (cobalt resin, 3C protease cleavage, Superdex 75); not shown: His6, N-terminal, cleaved
For B6, the “stoichiometry N” value in data set [4] was 0.15 molar ratio EBNA2 : BS69CC-MYND monomer. Further, the “dH (second binding event)” value in data set [5] was -1.59 kcal/mol. Binding in data set [2] was characterised by a dissociation constant (Kd) of 1010 nM.

B7: T2 EBNA2_(348-422) motif 3 mt (domain or fragment)
chain: SMPQLSPVVSLHQGQGPENSPTPGPSTAGPVCRVTPSATPDISPIHEPESSDSEEPPFLFPSDWYPATAEAAELD
notes: EBNA2 of type 2 EBV (AG876), amino acids 348-422, motif 3 (PTLEP 414-418) mutated to ATAEA; source: E. coli Rosetta 2 (DE3) pLysS, purified (cobalt resin, 3C protease cleavage, Superdex 75); not shown: His6, N-terminal, cleaved
On to B7, for which, in data set [4], the “stoichiometry N” value was 0.3 molar ratio EBNA2 : BS69CC-MYND monomer.

B8: T2 EBNA2_(348-422) SD mutant (domain or fragment)
chain: SMPQLSPVVSLHQGQGPENSPTPGPSTAGPVCRVTPSATPDISPIHEPESSDSEEPPFLFPDDWYPPTLEPAELD
notes: EBNA2 of type 2 EBV (AG876), amino acids 348-422 with serine 409 changed to aspartate (the position that is 442 in type 1 EBNA2); text and methods print 409; source: E. coli Rosetta 2 (DE3) pLysS, purified (cobalt resin, 3C protease cleavage, Superdex 75); not shown: His6, N-terminal, cleaved
Take B8: in data set [5], the “dH (second binding event)” value is -7.65 kcal/mol.

B9: EBNA2_(348-422) SD + m3 mt (domain or fragment)
chain: SMPQLSPVVSLHQGQGPENSPTPGPSTAGPVCRVTPSATPDISPIHEPESSDSEEPPFLFPDDWYPATAEAAELD
notes: EBNA2 of type 2 EBV (AG876), amino acids 348-422 with S409D and motif 3 (PTLEP 414-418) mutated to ATAEA; also called T2 EBNA2_(348-422) SD + motif 3 mt; double mutant type 2 EBNA2 polypeptide; source: E. coli Rosetta 2 (DE3) pLysS, purified (cobalt resin, 3C protease cleavage, Superdex 75); not shown: His6, N-terminal, cleaved
With B9, in data set [5], the “dH (second binding event)” value is -9.62 kcal/mol and the “fold reduction of the affinity of the second binding event (KD2) against m11” value was ~2 fold.
